Patent US20110177071A1 (PERSEID THERAPEUTICS, published 2011)
Positions count from the first letter of the chain named.

T1: full-length human CD86 on HEK293 cells (human, UniProt P42081 24-329)
T1 sequence: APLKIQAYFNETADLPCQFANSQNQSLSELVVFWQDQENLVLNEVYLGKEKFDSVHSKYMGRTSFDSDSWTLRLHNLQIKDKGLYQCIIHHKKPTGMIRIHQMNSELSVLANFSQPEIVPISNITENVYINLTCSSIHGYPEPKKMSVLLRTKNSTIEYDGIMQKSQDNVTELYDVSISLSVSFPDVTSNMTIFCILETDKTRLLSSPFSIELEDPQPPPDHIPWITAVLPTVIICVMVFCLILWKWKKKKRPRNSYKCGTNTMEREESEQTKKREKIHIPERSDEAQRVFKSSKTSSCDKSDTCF

T2: monomeric hCD86 ECD (papain-digested hCD86-mIg) (human, UniProt P42081 24-243)
T2 construct: also called monomeric hCD86-mIg ligand; monomeric CD86 ECD
T2 chain: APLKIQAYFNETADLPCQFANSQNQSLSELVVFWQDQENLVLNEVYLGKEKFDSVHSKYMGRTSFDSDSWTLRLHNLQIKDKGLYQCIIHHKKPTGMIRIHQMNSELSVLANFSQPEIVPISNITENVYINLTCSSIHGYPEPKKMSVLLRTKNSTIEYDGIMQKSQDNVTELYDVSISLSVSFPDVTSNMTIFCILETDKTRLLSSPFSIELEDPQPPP

T3: human CD86-murine Ig fusion protein (human)
T3 construct: Bought (Ancell #509-820); also called hCD86-mIg
T3 chain: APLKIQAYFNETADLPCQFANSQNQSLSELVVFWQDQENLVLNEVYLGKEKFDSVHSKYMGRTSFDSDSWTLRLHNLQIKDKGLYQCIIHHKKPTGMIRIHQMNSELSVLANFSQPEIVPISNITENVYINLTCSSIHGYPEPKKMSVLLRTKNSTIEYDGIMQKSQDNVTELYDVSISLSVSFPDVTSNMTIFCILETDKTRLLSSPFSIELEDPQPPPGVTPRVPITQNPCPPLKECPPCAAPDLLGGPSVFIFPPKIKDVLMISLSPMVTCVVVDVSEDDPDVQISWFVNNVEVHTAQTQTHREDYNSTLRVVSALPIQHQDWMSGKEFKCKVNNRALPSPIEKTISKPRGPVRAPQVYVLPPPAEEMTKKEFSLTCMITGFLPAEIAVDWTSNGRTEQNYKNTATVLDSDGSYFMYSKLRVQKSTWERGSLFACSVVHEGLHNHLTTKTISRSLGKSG

T4: human CD80-murine Ig fusion protein (human)
T4 construct: Bought (Ancell #510-820); also called hCD80-mIg; human CD80-murine IgG
T4 chain: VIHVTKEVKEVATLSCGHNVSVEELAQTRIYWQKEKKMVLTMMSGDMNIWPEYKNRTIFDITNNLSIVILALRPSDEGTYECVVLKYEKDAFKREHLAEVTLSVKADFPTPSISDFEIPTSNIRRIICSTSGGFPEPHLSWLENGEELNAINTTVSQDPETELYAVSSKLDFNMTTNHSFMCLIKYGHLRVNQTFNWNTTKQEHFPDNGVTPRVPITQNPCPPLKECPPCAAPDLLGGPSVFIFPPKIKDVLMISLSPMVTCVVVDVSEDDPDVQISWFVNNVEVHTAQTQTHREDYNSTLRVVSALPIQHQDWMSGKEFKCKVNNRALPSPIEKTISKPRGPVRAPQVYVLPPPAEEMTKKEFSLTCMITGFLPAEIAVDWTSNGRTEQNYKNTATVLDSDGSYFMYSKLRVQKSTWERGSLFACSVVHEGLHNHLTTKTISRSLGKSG

B1: D3-14-IgG2 (Fc fusion)
chain: MHVAQPAVVLASSRGIASFVCEYESPGKANEIRVTVLRQADSQVTEVCAMTYMKGDELTFLDDPSCTGTFSGNQVNLTIQGLRAADTGLYICKVELMYPPPYYLGIGNGTQIYVIDPEPCPDSDERKCCVECPPCPAPPVAGPSVFLFPPKPKDTLMISRTPEVTCVVVDVSHEDPEVQFNWYVDGVEVHNAKTKPREEQFNSTFRVVSVLTVVHQDWLNGKEYKCKVSNKGLPAPIEKTISKTKGQPREPQVYTLPPSREEMTKNQVSLTCLVKGFYPSDIAVEWESNGQPENNYKTTPPMLDSDGSFFLYSKLTVDKSRWQQGNVFSCSVMHEALHNHYTQKSLSLSPG
B2: D3-17-IgG2 (Fc fusion)
chain: B1 chain with A85M
B3: D3-29-IgG2 (Fc fusion)
chain: B1 chain with E24A, A85M
B4: D3-70-IgG2 (Fc fusion)
chain: B1 chain with I32V, D56N, A85M, L104E
B5: D3-31-IgG2 (Fc fusion)
chain: B1 chain with G55E
B6: D3-71-IgG2 (Fc fusion)
chain: B1 chain with E24A, A85M, L104E
B7: D3-20-IgG2 (Fc fusion)
chain: B1 chain with D56N, A85M
B8: D3-4-IgG2 (Fc fusion)
chain: B1 chain with I106F
notes: also called D3-04-IgG2
B9: D3-75-IgG2 (Fc fusion)
chain: B1 chain with I32V, G55E, D56N, A85M
B10: D3-73-IgG2 (Fc fusion)
chain: B1 chain with I32V, D56N, S65I, A85M, L104E
B11: D3-11-IgG2 (Fc fusion)
chain: B1 chain with D41G, A85M, I106F
B12: D3-53-IgG2 (Fc fusion)
chain: B1 chain with D41G, L104E
B13: D3-72-IgG2 (Fc fusion)
chain: B1 chain with D56N, A85M, L104E
B14: D3-12-IgG2 (Fc fusion)
chain: B1 chain with D41G
B15: D3-27-IgG2 (Fc fusion)
chain: B1 chain with I32V, D56N, A85M
B16: D3-IgG2 (Fc fusion)
chain: B1 chain with D41G, I106F
notes: also called clone D3
B17: D1-IgG2 (Fc fusion)
chain: B1 chain with G27H, N30T, D41N, S65F

What follows are binders tested against T1, full-length human CD86 on HEK293 cells (assay: cell-based or functional assay).

| Binder | Mean IC50 (nM), CD4+ T cell proliferation |
| --- | --- |
| B1 | 0.04 nM |
| B2 | 0.03 nM |
| B3 | 0.04 nM |
| B4 | 0.05 nM |
| B5 | 0.03 nM |
| B6 | 0.04 nM |
| B7 | 0.04 nM |
| B8 | 0.03 nM |
| B9 | 0.03 nM |
| B10 | 0.06 nM |
| B11 | 0.03 nM |
| B12 | 0.02 nM |
| B13 | 0.03 nM |
| B14 | 0.04 nM |
| B15 | 0.04 nM |
| B16 | 0.04 nM |

Target: T2, monomeric hCD86 ECD (papain-digested …)
Experiment: SPR Biacore, fusion protein captured, monomeric hCD86 ECD in flow
Experimental: Regeneration between cycles was performed by 3 min incubation with 10 mM glycine buffer (pH 1.7) at 30 μl/min.
For kinetic analysis, data from monomeric binding assays were selected as described above except that association data selection began and ended 5 s from the injection start and stop times, and dissociation data selection started 5 s after the injection stop time, and typically included 1-60 s of the dissociation period. Such data were also analyzed for steady state equilibrium affinities using the BIAevaluation software. Steady state binding levels for each concentration (Responseeq (“Req”) values) were averaged over 5-20 s range near the end of the sample injection using the BIAevaluation “General fit: average” function.

| Binder | Binding Affinity (Relative to LEA29Y-Ig) | Kd |
| --- | --- | --- |
| B1 | > 5 fold | < 336 nM |
| B2 | > 5 fold | < 336 nM |
| B3 | > 5 fold | < 336 nM |
| B5 | > 5 fold | < 336 nM |
| B7 |  | 336 to 840 nM |
| B8 | > 5 fold | < 336 nM |
| B11 | > 5 fold | < 336 nM |
| B12 | > 5 fold | < 336 nM |
| B14 | > 5 fold | < 336 nM |
| B15 |  | 336 to 840 nM |
| B16 | > 5 fold | < 336 nM |

Target: T3, human CD86-murine Ig fusion protein
Experiment: SPR Biacore, hCD86-mIg captured

| Binder | Binding Avidity (Relative to Orencia) | Kd |
| --- | --- | --- |
| B1 | > 40 fold | < 0.131 nM |
| B2 | > 40 fold | < 0.131 nM |
| B3 | > 40 fold | < 0.131 nM |
| B4 | > 40 fold | < 0.131 nM |
| B5 | > 40 fold | < 0.131 nM |
| B6 | > 40 fold | < 0.131 nM |
| B7 |  | 0.131 to 0.262 nM |
| B8 | > 40 fold | < 0.131 nM |
| B9 | > 40 fold | < 0.131 nM |
| B10 | > 40 fold | < 0.131 nM |
| B11 | > 40 fold | < 0.131 nM |
| B12 | > 40 fold | < 0.131 nM |
| B13 | > 40 fold | < 0.131 nM |
| B14 | > 40 fold | < 0.131 nM |
| B15 |  | 0.131 to 0.262 nM |
| B16 | > 40 fold | < 0.131 nM |

Target: T4, human CD80-murine Ig fusion protein
Experiment: SPR Biacore, hCD80-mIg captured

| Binder | Kd | Binding Avidity (Relative to Orencia) |
| --- | --- | --- |
| B1 | 0.439 to 1.75 nM |  |
| B2 | 0.439 to 1.75 nM |  |
| B3 | 0.439 to 1.75 nM |  |
| B4 | < 0.439 nM | > 2 fold |
| B5 | < 0.439 nM | > 2 fold |
| B6 | < 0.439 nM | > 2 fold |
| B7 | 0.439 to 1.75 nM |  |
| B8 | 0.439 to 1.75 nM |  |
| B9 | < 0.439 nM | > 2 fold |
| B10 | < 0.439 nM | > 2 fold |
| B11 | 0.439 to 1.75 nM |  |
| B12 | < 0.439 nM | > 2 fold |
| B13 | < 0.439 nM | > 2 fold |
| B14 | < 0.439 nM | > 2 fold |
| B15 | 0.439 to 1.75 nM |  |
| B17 | < 0.439 nM | > 2 fold |
| B16 | 0.439 to 1.75 nM |  |

Target: T3, human CD86-murine Ig fusion protein
Experiment: SPR Biacore, hCD86-mIg captured; upper end of the KD bin (2x Orencia)
Experimental: (§1) All Biacore™ analyses were performed on a Biacore™ 2000 system (GE Healthcare) at room temperature (RT, 25° C.). HBS-EP buffer (10 mM HEPES (pH 7.4), 150 mM NaCl, 3 mM EDTA, 0.005% surfactant P20) was used as the flow buffer for all experiments.
(§2) Rabbit anti-mouse IgG antibody (GE Healthcare, #BR-1005-14) was immobilized on CM5 sensor chips (GE Healthcare, #BR-1000-14) according to the manufacturer's protocol. Antibody was diluted to 30 μg/ml in immobilization buffer (10 mM sodium acetate, pH 5.0 (BR-1003-51)). At a flow rate of 5 μl/minute, sensor chip CM5 was activated with a 35 μl injection of a mixture of 1-Ethyl-3-[3-dimethylaminopropyl]carbodiimide hydrochloride (EDC) and N-hydroxysuccinimide (NHS) (made by mixing equal volumes of 11.5 mg/ml EDC and 75 mg/ml NHS) (GE Healthcare, #BR-1000-50), followed by a 35 μl injection of undiluted antibody. Un-reacted sites were quenched with 35 μl of 1M ethanolamine-HCL, pH 8.5 (GE Healthcare, #BR-1000-50). […] CTLA-4 ligands human CD80-murine Ig (hCD80-mIg) (Ancell, #510-820) or human CD86-murine Ig (hCD86-mIg) (Ancell, #509-820) were bound to antibody-coated sensor chips by injection of 10 μl or 16 μl, respectively, ligand solution (2 μg/ml protein in HBS-EP buffer [10 mM HEPES pH 7.4, 150 mM NaCl, 3 mM EDTA, 0.005% (v/v) surfactant P-20, GE Healthcare, #BR-1001-88]) at a flow rate of 10 μl/min.

| Binder | Kd |
| --- | --- |
| B17 | ≤ 2.65 nM |

Target: T3, human CD86-murine Ig fusion protein
Experiment: SPR Biacore, hCD86-mIg captured; lower end of the KD bin (10x Orencia)
Experimental: as §1, §2

| Binder | Kd |
| --- | --- |
| B17 | ≥ 0.523 nM |
